# Like-named read-outs stand apart in the source and are kept apart here.
# Key:
# [1] = Pharmacokinetic study: variability in plasma concentration (% CV) after p.o. administration of SNAC tablet to humans; format: in vivo; settings: for % CV AUC / % CV Cmax: p.o. tablet with 300 mg SNAC
# Protocol: The variability in plasma concentration was determined as % CV for both Cmax and AUC.
# [2] = dog, in vivo
# Protocol: The other monoclonal antibody, specific for an N-terminal epitope, was biotinylated. […] Illumination of the complex releases singlet oxygen atoms from the donor beads which channels into the acceptor beads and trigger chemiluminescence which was measured in the EnVision plate reader.
# The LC-MS system consisted of Waters Acquity UPLC system (Waters) consisting of an autosampler (Model Acq-SM), pump (Model Acq-BSM), column oven (Model Acq-SM), detector (Model Acq-TUV) and LTQ Orbitrap XL (Thermo Fisher). RP-HPLC separation was achieved using a linear gradient of acetonitrile in 0.1% formic acid using CSH C18 column (Waters, 1×150 mm) with a flow rate of 0.1 ml/min at 45° C.
# A pharmacokinetic study was carried out to determine plasma half-life of the GLP-1 peptides after p.o. administration to Beagle dogs.
# Dogs were administered p.o. GLP-1 peptide 1 in a SNAC formulation. Blood samples were drawn at predefined time points after dosing, and samples were analysed for concentration of the GLP-1 peptide. […] The variability in plasma concentration of the GLP-1 peptide was determined as % CV for AUC. […]
# Blood samples were drawn at predefined time points after dosing, and samples were analysed for concentration of the GLP-1 peptide. […] The variability in plasma concentration of the GLP-1 peptide was determined as % CV for AUC. […]
# [3] = 10 mg, single dose, healthy subjects
# [4] = 10 mg/day for 70 days, healthy subjects, Day 70
# [5] = 20 mg/day for 70 days, healthy subjects, Day 69
# [6] = 40 mg/day for 70 days, healthy subjects, Day 69
# [7] = 40 mg/day for 70 days, subjects with type 2 diabetes, Day 69
substance,measurement,setting,value
"N-epsilon26-[2-(2-{2-[2-(2-{2-[(S)-4-Carboxy-4-(17-carboxyheptadecanoyl-amino)butyrylamino]ethoxy}ethoxy)acetylamino]ethoxy}ethoxy)acetyl][Aib8,Arg34]GLP-1-(7-37) [GLP-1 peptide 1]","variability in plasma exposure, daily dosing compared to single dose","[1]; humans, 10, 20 or 40 mg daily for 70 days vs single dose of 10 mg",significantly reduced
same,% CV AUC,[1]; [3],105%
same,% CV Cmax,[1]; [3],113%
same,% CV AUC,[1]; [4],73% (Day 70)
same,% CV Cmax,[1]; [4],74% (Day 70)
same,% CV AUC,[1]; [5],67% (Day 69)
same,% CV Cmax,[1]; [5],62% (Day 69)
same,% CV AUC,[1]; [6],78% (Day 69)
same,% CV Cmax,[1]; [6],80% (Day 69)
same,% CV AUC,[1]; [7],55% (Day 69)
same,% CV Cmax,[1]; [7],54% (Day 69)
same,"variability in plasma exposure, daily dosing compared to single dose",[2],significantly reduced
same,% CV AUC,"[2]; po, 300 mg",67%

# Source: patent US10278923B2, “Oral dosing of GLP-1 compounds” (Novo Nordisk A/S, priority 2013, dated 2019)
